Our source for the Kd values is article doi:10.1101/2025.06.28.662095, “Mechanistic insights into the allosteric regulation of cell wall hydrolase RipA in Mycobacterium tuberculosis” (bioRxiv, 2025).

The target of the assay is T1, MtSteBΔTM (M. tuberculosis SteB devoid of its TM domain, residues 38-314) (Mycobacterium tuberculosis, UniProt P9WJ83 38-314).
T1 construct: Homodimer in both crystal structures; also called Rv1698; MctB; not shown: 6xHis-SUMO, N-terminal, cleaved
Kind of assay: BLI; biotinylated MtRipACC immobilised on streptavidin biosensors; 25°C; 25 mM HEPES pH 7.5, 150 mM NaCl, 5% glycerol, BSA 1 mg/mL, 0.05% Tween 20; steady-state signal versus concentration, one-site binding model; apparent Kd. The conditions noted are these: both partners purified. (Biolayer interferometry detects binding as a change in optical thickness at a sensor tip.)

B1: MtRipACC (coiled-coil domain of M. tuberculosis RipA, residues 40-240) (domain or fragment)
chain: DPQTDTIAALIADVAKANQRLQDLSDEVQAEQESVNKAMVDVETARDNAAAAEDDLEVSQRAVKDANAAIAAAQHRFDTFAAATYMNGPSVSYLSASSPDEIIATVTAAKTLSASSQAVMANLQRARTERVNTESAARLAKQKADKAAADAKASQDAAVAALTETRRKFDEQREEVQRLAAERDAAQARLQAARLVAWSSE
modifications: biotinylated with EZ-Link NHS-PEG4-Biotin (20 molar excess) for the BLI assays
notes: also called RipA coiled-coil (CC) domain; MtRipA CC domain; not shown: 6xHis-SUMO, N-terminal, cleaved
As for B1, the Kd stood at 42.6 ± 4.4 µM.
